T1: IL-4 (UniProt P05112 25-153)
T1 sequence (looked up): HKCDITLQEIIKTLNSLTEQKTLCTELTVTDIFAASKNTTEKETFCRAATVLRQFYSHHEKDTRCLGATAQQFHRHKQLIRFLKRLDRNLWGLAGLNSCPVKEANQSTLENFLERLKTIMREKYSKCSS

T2: IL-7 (UniProt P13232 26-177)
T2 sequence (looked up): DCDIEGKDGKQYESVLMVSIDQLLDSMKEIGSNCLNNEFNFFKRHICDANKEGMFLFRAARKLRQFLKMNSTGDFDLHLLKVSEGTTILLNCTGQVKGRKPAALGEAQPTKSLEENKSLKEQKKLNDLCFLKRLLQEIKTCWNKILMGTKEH

B1: recombinant cynomolgus monkey IL-21 (ligand)
chain: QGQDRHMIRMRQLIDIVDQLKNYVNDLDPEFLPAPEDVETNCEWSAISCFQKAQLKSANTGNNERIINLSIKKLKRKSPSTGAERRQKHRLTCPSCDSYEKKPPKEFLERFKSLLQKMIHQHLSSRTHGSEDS
notes: also called cyno IL-21; cynoIL-21
B2: K44VHa-N56Q (MEDI7169) (antibody, V domains shown)
VH: QVQLVQSGAEVKKPGASVKVSCKASGYTFTDYWMHWVRQAPGQGLEWMGTIDPSDQYTIYSQNFKGRVTMTRDTSTSTVYMELSSLRSEDTAVYYCARYGFAMDYWGQGTLVTVSS
VL: DIQLTQSPSSLSASVGDRVTITCRASQDISNFLNWYQQKPGKAVKLLIYYTSRLHSGVPSRFSGSGSGTDYTLTISSLQPEDFATYYCQQGHTLPRTFGGGTKVEIK

Experiments:
[1] = target: T3, IL-21 (species not stated in the assay) (Homo sapiens (Human), UniProt Q9HBE4 25-162, Biotinylated in the competition ELISA of paragraph 259 (sites not given); unlabelled in the other results.); test: method not stated
T3 construct: also called biotinylated IL-21

recombinant human IL-21 [2] = target: T4, recombinant human IL-21 (human, UniProt Q9HBE4 30-162, limits assumed); test: cell-based or functional assay
[3] = target: B1; test: cell-based or functional assay
[4] = target: T3, IL-21 (species not stated in the assay); test: cell-based or functional assay
recombinant human IL-21 [5] = target: T4, recombinant human IL-21; test: cell-based or functional assay; remark: listed apart in the source
[6] = target: B1; test: cell-based or functional assay; remark: listed apart in the source
recombinant human IL-21 [7] = target: T4, recombinant human IL-21; test: cell-based or functional assay; remark: listed apart in the source
[8] = target: B1; test: cell-based or functional assay; remark: listed apart in the source
recombinant human IL-21 [9] = target: T4, recombinant human IL-21; test: cell-based or functional assay; remark: listed apart in the source
[10] = target: B1; test: cell-based or functional assay; remark: listed apart in the source
IL-2 = IL-2 (UniProt P60568 21-153); test: ELISA on plate-coated cytokine (2 µg/ml)
Protocol: (§1) ELISA was used to test cross reactivity of lead clones. Cytokines tested include 11-2, IL-4, IL-7, IL-9, and IL-15. Maxisorp ELISA plate (NUNC) was coated with 2 μg/ml of different cytokines in PBS at 4° C. overnight. The plate was then blocked with 3% BSA in PBST (PBS+0.1% Tween) at room temperature for one hour. Purified lead clone IgGs were serially diluted in PBST+3% BSA and the mixture was then added to each ELISA plate well and further incubated at room temperature for half an hour. After washing, secondary antibody-HRP was added to each well for 1 hour. Wells were washed first with PBST and then with PBS and the TMB solution from Pierce was added to detect the secondary antibody. After 5′ the reaction was stopped by the addition of 1N sulfuric acid. The plates were then read in an ELISA reader at 450 nm to detect the binding.

IL-4 = target: T1, IL-4; test: ELISA on plate-coated cytokine (2 µg/ml)
Protocol: as §1

IL-7 = target: T2, IL-7; test: ELISA on plate-coated cytokine (2 µg/ml)
Protocol: as §1

recombinant human IL-21 [11] = target: T4, recombinant human IL-21; test: method not stated for this clone (Table 2, column Kd hu)
K44VHa-N56Q (MEDI7169) [12] = target: B2; test: KinExA solution-phase equilibrium titration: fixed 50 pM K44VHa-N56Q (MEDI7169) IgG, cynomolgus monkey IL-21 varied; free IgG captured on IL-21-coated beads (the competitor)
Protocol: (§2) The IL-21-coated Azlactone bead slurries were diluted to 30 mL with instrument buffer (PBS, pH 7.4, 0.02% NaN3) in a bead vial and affixed to the KinExA instrument. A user-defined timing program was used to sequentially transfer the IL-21/Azlactone beads to a capillary flow cell in the instrument, and individual sample mixtures were injected over the IL-21-coated beads. Unbound sample solution was removed by washing the beads with instrument buffer. A 1- or 2-μg/mL solution of the DyLight649-labeled, goat-anti-hulgG(H+L) secondary reagent (Thermo Scientific) was passed over the beads to detect receptor (K44VHa-N56Q) that remained bound to the IL-21-coated beads. […] The amount of fluorescence that remained associated with the beads was measured, and the signal was converted to percent free receptor (K44VHa-N56Q). […] Once the data had been collected for all samples in each series (500 fM and 50 pM K44VHa-N56Q), an isotherm was generated, which plotted the amount of free K44VHa-N56Q detected at each concentration of IL-21. The resulting 2 binding curves were then evaluated in a dual curve analysis using the instrument's evaluation software (KinExA Pro Software, v. 2.0.1.26, Sapidyne) from which individual KDS for each interaction were derived.
(§3) The binding of K44VHa-N56Q to human and cynomolgus monkey IL-21 was measured by KinExA. […]

K44VHa-N56Q (MEDI7169) [13] = target: B2; test: KinExA solution-phase equilibrium titration: fixed 500 fM K44VHa-N56Q (MEDI7169) IgG, cynomolgus monkey IL-21 varied; free IgG captured on IL-21-coated beads (the competitor)
Protocol: as §2, §3

IL-15 = IL-15 (UniProt P40933 49-162); test: ELISA on plate-coated cytokine (2 µg/ml)
Protocol: as §1

recombinant human IL-21 [14] = target: T4, recombinant human IL-21; test: KinExA 3000, solution-phase equilibrium, dual curve analysis
Protocol: as §2, §3

[15] = target: B1; test: as above
Protocol: as §2, §3

T4 sequence (Q9HBE4 30-162 limits assumed, form in doubt): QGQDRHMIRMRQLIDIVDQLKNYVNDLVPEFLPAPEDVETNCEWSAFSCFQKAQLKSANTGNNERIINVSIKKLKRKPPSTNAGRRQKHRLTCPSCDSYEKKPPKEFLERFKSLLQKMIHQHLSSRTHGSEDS
T3 sequence (Q9HBE4 25-162 limits assumed): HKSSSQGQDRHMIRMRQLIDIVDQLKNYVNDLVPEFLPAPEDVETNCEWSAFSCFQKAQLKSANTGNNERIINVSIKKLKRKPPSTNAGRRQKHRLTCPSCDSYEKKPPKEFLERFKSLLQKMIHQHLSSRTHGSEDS
Sequence of IL-2 (P60568 21-153 limits assumed): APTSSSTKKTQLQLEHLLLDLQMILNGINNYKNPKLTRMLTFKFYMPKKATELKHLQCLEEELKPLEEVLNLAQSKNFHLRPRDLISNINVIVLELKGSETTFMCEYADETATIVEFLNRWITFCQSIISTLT
Sequence of IL-15 (P40933 49-162 limits assumed): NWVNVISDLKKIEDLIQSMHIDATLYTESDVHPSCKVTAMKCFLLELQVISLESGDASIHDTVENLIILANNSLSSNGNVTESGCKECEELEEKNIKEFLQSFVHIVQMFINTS

Kd [1] [nM]	inhibition of IgG production by human B cells (recombinant human IL-21 [2]) [%]	inhibition of IgG production by human B cells [3] [%]	maximal inhibition in pSTAT3 assay [4] [%]	IC50 in pSTAT3 assay (human PBMCs, 20 pM IL-21) (recombinant human IL-21 [5]) [pM]	IC50 in pSTAT3 assay (human PBMCs, 20 pM IL-21) [6] [pM]	IC50 in NK-92 cell assay (IFNγ, 200 pM IL-21) (recombinant human IL-21 [7]) [pM]	IC50 in NK-92 cell assay (IFNγ, 200 pM IL-21) [8] [pM]	IC50 in PC differentiation assay (2 nM IL-21) (recombinant human IL-21 [9]) [nM]	IC50 in PC differentiation assay (2 nM IL-21) [10] [nM]	binding result (IL-2)	binding result (IL-4)	binding result (IL-7)	Kd (recombinant human IL-21 [11]) [nM]	IC50 (read off the curve) (K44VHa-N56Q (MEDI7169) [12]) [nM]	IC50 (read off the curve) (K44VHa-N56Q (MEDI7169) [13]) [nM]	binding result (IL-15)	Kd (recombinant human IL-21 [14]) [nM]	Kd [15] [nM]	Binder
10	97	79	100	21.7	83.2	462	867	47.3	74	no binding	no binding	no binding	0.00999	–	–	–	–	–	murine monoclonal antibody 9F11 (antibody, V domains shown, also called 9F11.1) VH: EVELVESGGGLVQPGGSMKLSCAASGFTFSDAWMDWVRQSPEKGLEWVAEIRSEADNHPTYYAESVKGRFTISRDDSKSSVYLQMNSLRAEDSGIYYCTEYDYEGFVHWGQGTLVTVSA VL: DIVLTQSPASLAVSLGQRATISCRASKSVSTYGYSYMHWYQQKPGQPPKLLIYLASNLESGVPARFSGSGSGTDFTLNIHPVEEEDAATYYCQHSRELPLTFGAGTKLELK
–	–	–	–	–	–	–	–	–	–	–	–	–	–	~0.06	~0.001	–	–	–	B1
–	–	–	100	17.2	19.3	92.7	80.8	0.777	1.06	no binding	no binding	no binding	–	–	–	no binding	0.000515	0.000352	B2

From patent publication US20200164069A1 (BOSTON PHARMACEUTICALS, published 2020)
